Data reported in paper PMC4974056, “The proposed channel-enzyme transient receptor potential melastatin 2 does not possess ADP ribose hydrolase activity” (eLife, 2016).
“And” between values parts separate entries of the source, which are not always exact repeats. Identical values can stand only once. Like-named read-outs stand apart in the source and are kept apart here.

Columns and labels:
[1] = Spontaneous ADPR degradation at basic pH (TLC and Pi assay, no ADPRase); assay type: physicochemical
Experimental: (§1) ADPRase activities of mitochondrial NUDT9, NUDT9H, and the purified chimeric constructs (Chi2, Chi3S, Chi4S) were quantitated by densitometric detection of the AMP product on TLC sheets. The 20-μl reaction mixtures contained 0.1, 0.5 or 1 μM purified protein, 10 mM Na-ADPR (Sigma-Aldrich, St. Louis, MO, USA), 16 mM MgCl2, and 50 mM reaction buffer (RB). The reaction buffers used were: 50 mM MES, pH 6.5 with NaOH (RB1); 50 mM HEPES, pH 7.1 with NaOH (RB2); 50 mM Tris, pH 8.5 with HCl (RB3); RB1 + 100 mM NaCl (RB4); RB2 + 100 mM NaCl (RB5), and RB3 + 100 mM NaCl (RB6). For the enzyme kinetics experiments on NUDT9 and Chi2, aliquots from the reaction mixtures were collected at the indicated time points; 3 independent experiments were performed for both proteins and each condition, and data are presented as mean ± SEM. All incubations were at room temperature (~25°C). For TLC, 1-μl aliquots of reaction mixtures were placed on Polygram SIL G/UV254 plates (Macherey-Nagel, Düren, Germany), dried and developed in 0.2 M NH4HCO3 in ethanol:water 7:3 (vol/vol). Nucleotides were visualized under UV light. Densitometry of nucleotide intensities was done using ImageJ software.
(§2) The ADPRase activities of the same proteins were additionally tested with a more sensitive assay based on colorimetric detection of Pi (Pi assay) liberated from both ADPRase products AMP and R5P by co-applied alkaline phosphatase (AP) ([Rafty et al., 2002]). AP liberates Pi from AMP and R5P, but not from intact ADPR: thus, Pi is produced from hydrolyzed ADPR at a molar ratio of 1:2. In brief, 150-μl reaction volumes containing 5 or 50 nM purified protein, 5–6 U bovine AP, 1 mM Na-ADPR, 16 mM MgCl2, and 50 mM reaction buffer at various pH values (MES 6.5, HEPES 7.1, Tris 8.5, and Tris 9.0) were incubated for 30 min at either 37°C or room temperature. The reaction was stopped and Pi visualized by adding 850 μl coloring solution (6:1 vol/vol ratio mixture of 0.42% ammonium molybdate tetrahydrate in 1N H2SO4 and 10% L-ascorbic acid) followed by incubation for 20 min at 45°C. Optical density was then measured at 820 nm (NanoPhotometer P300, Implen GmbH, Munich, Germany). Coloring solution was freshly made, and standard curve (0.050–2 mM KH2PO4) obtained, daily. Reactions with 1 mM AMP or R5P (instead of ADPR) served as positive controls. All reagents were from Sigma-Aldrich.

T5L-TRPM2 [2] = molecular target: T1, T5L-TRPM2 (Homo sapiens, UniProt O94759, G984L/INS985E/Y985D); experiment: Excised inside-out patch-clamp recordings, ADPR-dependent channel activation; assay type: cell-based
T1 sequence (O94759 whole entry, stated change not applied): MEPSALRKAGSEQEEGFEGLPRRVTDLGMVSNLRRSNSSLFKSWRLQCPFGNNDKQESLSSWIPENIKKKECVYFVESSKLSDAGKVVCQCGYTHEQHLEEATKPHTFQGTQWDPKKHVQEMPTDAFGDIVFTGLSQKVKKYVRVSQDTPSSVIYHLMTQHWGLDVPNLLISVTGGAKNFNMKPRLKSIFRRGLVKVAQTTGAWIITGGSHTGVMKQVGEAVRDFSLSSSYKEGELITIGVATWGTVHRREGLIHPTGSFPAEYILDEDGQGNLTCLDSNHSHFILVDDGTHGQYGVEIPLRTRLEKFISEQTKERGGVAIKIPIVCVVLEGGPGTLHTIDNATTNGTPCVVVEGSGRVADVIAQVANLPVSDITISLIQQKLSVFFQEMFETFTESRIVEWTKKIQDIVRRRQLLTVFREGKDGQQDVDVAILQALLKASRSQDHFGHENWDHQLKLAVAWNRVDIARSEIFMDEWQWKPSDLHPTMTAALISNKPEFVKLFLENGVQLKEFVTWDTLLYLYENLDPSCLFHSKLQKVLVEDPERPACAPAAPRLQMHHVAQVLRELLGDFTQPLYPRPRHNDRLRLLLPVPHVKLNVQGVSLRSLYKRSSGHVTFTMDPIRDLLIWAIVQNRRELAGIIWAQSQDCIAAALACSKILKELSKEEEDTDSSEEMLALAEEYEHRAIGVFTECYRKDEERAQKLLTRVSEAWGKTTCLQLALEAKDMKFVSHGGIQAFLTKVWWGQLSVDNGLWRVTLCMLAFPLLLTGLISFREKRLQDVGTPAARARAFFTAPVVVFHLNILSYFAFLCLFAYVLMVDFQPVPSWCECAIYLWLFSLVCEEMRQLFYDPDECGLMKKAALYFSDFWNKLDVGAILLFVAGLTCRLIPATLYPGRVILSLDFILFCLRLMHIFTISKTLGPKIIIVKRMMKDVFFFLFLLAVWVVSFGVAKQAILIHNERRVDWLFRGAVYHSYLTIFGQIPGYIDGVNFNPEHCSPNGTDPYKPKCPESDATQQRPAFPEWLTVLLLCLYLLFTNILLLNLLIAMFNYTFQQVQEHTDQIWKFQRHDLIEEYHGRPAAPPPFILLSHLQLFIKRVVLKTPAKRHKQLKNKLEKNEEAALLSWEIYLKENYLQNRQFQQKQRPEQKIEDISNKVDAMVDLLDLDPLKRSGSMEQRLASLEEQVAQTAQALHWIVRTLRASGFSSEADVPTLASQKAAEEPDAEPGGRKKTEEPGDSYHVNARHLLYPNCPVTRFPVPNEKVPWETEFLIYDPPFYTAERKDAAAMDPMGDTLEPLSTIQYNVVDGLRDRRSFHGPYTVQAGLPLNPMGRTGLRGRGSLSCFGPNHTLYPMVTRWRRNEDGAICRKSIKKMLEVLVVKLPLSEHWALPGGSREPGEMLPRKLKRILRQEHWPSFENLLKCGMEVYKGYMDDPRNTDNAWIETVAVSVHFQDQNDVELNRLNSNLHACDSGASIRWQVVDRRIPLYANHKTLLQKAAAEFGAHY
Experimental: (§3) Oocytes isolated from anaesthetized Xenopus laevis were digested with collagenase, injected with 10–70 ng cRNA, and stored at 18°C. Recordings were done 2–3 days after injection.
The tip of the patch pipette was filled to ~1 cm height with 140 mM Na-gluconate, 2 mM Mg-gluconate2, 10 mM HEPES (pH 7.4 with NaOH); free [Ca^2+] ~4 μM. The pipette electrode was placed into a 140-mM NaCl-based solution carefully layered on top. Bath solution contained 140 mM Na-gluconate, 2 mM Mg-gluconate2, 10 mM HEPES (pH 7.1 with NaOH), and either 1 mM EGTA (to obtain 'zero' (~8 nM) Ca^2+) or 1 mM Ca-gluconate2 (to obtain 125 μM free Ca^2+) ([Csanády and Törocsik, 2009]). Na-ADPR was used at final concentrations of 0.32, 1, 3.2, 10, 32, 100, or 1000 μM, and the Na^+ salt of ε-ADPR at 100 μM. Macroscopic TRPM2 currents were recorded at 25°C at a membrane potential of −20 mV. Currents were amplified, filtered at 2 kHz (Axopatch 200B), digitized at 10 kHz (Digidata 1322A), and stored to disk (Pclamp9, Molecular Devices, Sunnyvale, CA, USA).
Dose dependence of ADPR-induced current activation, expressed as the ratio of mean macroscopic currents observed in the presence of various test [ADPR] (I) and 32 (or 100) μM ADPR (Imax) in the same patch, was fitted to the Hill equation (I/Imax = [ADPR]^n/(K^n+[ADPR]^n). Dose dependence of ADPR-activation in the presence of 100 μM ε-ADPR was expressed as the ratio of the currents observed in the presence of various test [ADPR] + 100 μM ε-ADPR (I) and 100 μM ADPR alone (Imax) in the same patch, and was fitted to the Hill equation substituting K' = K(1+[ε-ADPR]/KI) instead of K (K and n fixed to their control values). Macroscopic current decay time courses following removal of ADPR or Ca^2+ were fitted by single exponentials using the method of least squares.

T5L-TRPM2-Chi2 = T5L-TRPM2-Chi2 (Homo sapiens, UniProt O94759+Q9BW91, G984L/INS985E/Y985D, form not given); experiment: as above; assay type: cell-based; settings: current in 1 μM ADPR divided by that in 32 μM ADPR; compared to TRPM2
Chain of T5L-TRPM2-Chi2 (O94759 1-1353, stated change not applied, one chain of several): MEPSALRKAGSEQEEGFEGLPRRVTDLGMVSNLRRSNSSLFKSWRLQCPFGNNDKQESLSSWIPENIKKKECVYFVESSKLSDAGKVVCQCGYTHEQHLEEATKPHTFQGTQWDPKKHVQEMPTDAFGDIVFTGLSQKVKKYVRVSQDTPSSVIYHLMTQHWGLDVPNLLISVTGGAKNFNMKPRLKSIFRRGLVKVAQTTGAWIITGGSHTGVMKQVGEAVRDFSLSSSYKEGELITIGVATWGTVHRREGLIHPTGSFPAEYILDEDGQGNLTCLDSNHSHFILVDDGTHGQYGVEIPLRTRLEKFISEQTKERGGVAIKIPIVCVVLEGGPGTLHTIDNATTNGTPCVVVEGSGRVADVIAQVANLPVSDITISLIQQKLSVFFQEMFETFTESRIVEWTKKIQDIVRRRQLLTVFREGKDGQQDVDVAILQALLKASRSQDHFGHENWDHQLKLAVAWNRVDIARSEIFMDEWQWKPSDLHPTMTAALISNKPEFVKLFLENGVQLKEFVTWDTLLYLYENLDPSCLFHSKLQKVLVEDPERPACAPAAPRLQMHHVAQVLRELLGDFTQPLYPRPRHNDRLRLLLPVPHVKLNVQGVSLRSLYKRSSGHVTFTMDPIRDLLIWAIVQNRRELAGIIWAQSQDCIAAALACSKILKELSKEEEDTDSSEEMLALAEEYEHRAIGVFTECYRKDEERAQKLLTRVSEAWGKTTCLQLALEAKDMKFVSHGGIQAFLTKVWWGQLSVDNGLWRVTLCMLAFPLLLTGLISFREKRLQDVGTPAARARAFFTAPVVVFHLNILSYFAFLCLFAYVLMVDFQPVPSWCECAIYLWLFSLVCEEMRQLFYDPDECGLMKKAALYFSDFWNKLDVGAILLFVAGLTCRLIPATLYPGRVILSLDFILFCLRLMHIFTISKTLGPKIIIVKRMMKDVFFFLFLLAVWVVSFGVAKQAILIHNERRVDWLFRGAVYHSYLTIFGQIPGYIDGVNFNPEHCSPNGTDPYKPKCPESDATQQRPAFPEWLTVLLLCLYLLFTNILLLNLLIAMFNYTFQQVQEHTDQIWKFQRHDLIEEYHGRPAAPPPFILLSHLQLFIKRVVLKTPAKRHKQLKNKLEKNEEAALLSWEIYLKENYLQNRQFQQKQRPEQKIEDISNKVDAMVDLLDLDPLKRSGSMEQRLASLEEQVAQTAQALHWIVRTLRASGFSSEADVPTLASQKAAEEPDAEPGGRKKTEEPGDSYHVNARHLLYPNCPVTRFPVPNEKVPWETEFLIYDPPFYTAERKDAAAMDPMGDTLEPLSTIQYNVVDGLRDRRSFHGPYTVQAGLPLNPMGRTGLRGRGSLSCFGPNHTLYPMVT
From the text: The noninactivating TRPM5-like pore mutant of TRPM2 (T5L-TRPM2) was contained in the pGEMHE vector ([Tóth and Csanády, 2012]). The NUDT9H domain of TRPM2 was replaced by Chi2A, Chi3 or Chi4 using the native BlpI-site upstream of the domain and an XbaI-site downstream of the Stop-codon in each chimeric construct. Single-base mutations to generate Stop-codons immediately upstream of the hexahistidine tags of Chi3 and Chi4 were then introduced (QuickChange II, Agilent Technologies, Santa Clara, CA, USA), yielding TRPM2-Chi3 and TRPM2-Chi4; TRPM2-Chi2 lacked a His-tag because it was derived from Chi2A.
as §3
The tip of the patch pipette was filled to ~1 cm height with 140 mM Na-gluconate, 2 mM Mg-gluconate2, 10 mM HEPES (pH 7.4 with NaOH); free [Ca^2+] ~4 μM. The pipette electrode was placed into a 140-mM NaCl-based solution carefully layered on top. […] Macroscopic TRPM2 currents were recorded at 25°C at a membrane potential of −20 mV. […]
Dose dependence of ADPR-induced current activation, expressed as the ratio of mean macroscopic currents observed in the presence of various test [ADPR] […]

T5L-TRPM2 [3] = molecular target: T1, T5L-TRPM2; design: method as in Tóth and Csanády, 2012; settings: previously established; ref Tóth and Csanády, 2012; read-out: half-saturating concentration; cited from earlier work
[4] = Enzymatic activity assay using colorimetric detection of inorganic phosphate (Pi assay, coupled to alkaline phosphatase); assay type: biochemical; settings: 5 or 50 nM protein co-applied with 1 mM ADPR and AP, 30 min, pH 6.5-9.0, 37°C or RT
Experimental: as §2, with “Reactions with 1 mM AMP or R5P (instead of ADPR) served as positive controls. All reagents were from Sigma-Aldrich.” left out
Molecular turnover rates (kcat) for NUDT9 were calculated from the [Pi] released in samples containing 5 nM NUDT9, in which [ADPR] remained >0.9 mM (i.e., saturating [[Perraud et al., 2003]]) throughout the 30-min incubation period, using the equation kcat = 0.5[Pi]released/5 nM/1800 s.

[5] = Enzymatic (ADPRase) activity assay using thin-layer chromatography (TLC); assay type: biochemical; settings: for ADPRase activity (conversion of ADPR into AMP and R5P, TLC): 1 μM protein, 16 mM Mg2+, 2-hr incubation, pH 6.5, 7.1 and 8.5, absence or presence of 100 mM NaCl; for ADPRase activity (conversion of ADPR into AMP and R5P, TLC) / kcat: 10 mM ADPR, room temperature; for Enzyme: Table 1 summary of ADPRase activity; for kcat: 0.5 μM protein
Experimental: as §1

[6] = Solubility of recombinant proteins expressed in E.coli; assay type: physicochemical; settings: for Soluble: expressed in E.coli, Table 1
Experimental: The soluble proteins (NUDT9 and Chi2) were expressed and purified as previously described for mitochondrial NUDT9 ([Tóth et al., 2014]). In brief, bacterial cultures were grown at 37°C in Luria-Bertani medium supplemented with the appropriate antibiotic and induced with 1 mM isopropyl-β-D-1-thiogalactopyranoside (IPTG) upon reaching OD600 of ~0.7. After 3 hr of incubation, cells were harvested and lysed with sonication in 20 mM Tris (pH 8.5 with HCl) / 200 mM NaCl. The cleared supernatant was incubated with Ni-Sepharose 6 Fast Flow resin (GE Healthcare Hungary, Hungary) for 3 hr under gentle rotation. The resin was then washed with lysis buffer supplemented with 20 mM imidazole, and the protein eluted with a buffer containing 20 mM Tris (pH 8.5 with HCl), 100 mM NaCl, and 400 mM imidazole.
Chi3S, Chi4S and NUDT9H were little soluble to insoluble when expressed at 37°C, the majority of the proteins ending up in inclusion bodies, but gave tractable (~1–5%) soluble fractions when induced with 0.1 mM IPTG at 25°C overnight. NUDT9H was then purified as NUDT9. Chi3S and Chi4S were purified using Strep-Tactin chromatography following the manufacturer’s instructions (IBA GmbH, Göttingen, Germany).

[7] = design: method as in Perraud et al., 2001, 2003; settings: ref Perraud et al., 2001, 2003, cited from earlier work

With `Nc1ncnc2c1ncn2C1OC(COP(=O)(O)OP(=O)(O)OCC2OC(O)C(O)C2O)C(O)C1O` (centres unmarked) [ADPR, adenosine 5'-diphosphoribose] the “spontaneous hydrolysis of applied ADPR (Pi assay)” value ([1]; 1 mM ADPR, 30 min, with AP, with or without Chi4S or NUDT9H) was ~ 1%, the spontaneous degradation ([1]; 25°C and pH 8.5, 20 min) was ~ 0.3% and the “time constant for spontaneous ADPR hydrolysis” value ([1]; 25°C and pH 8.5, assuming exponential decay) was ~ 100 hr. For the same molecule, the “decay time constant of spontaneous degradation” value ([1]; 25°C, pH 8.5) was “about 100 h”, the spontaneous degradation ([1]; 25°C, pH 8.5, 2 hr) was ~ 2% and the ADPR degraded spontaneously ([1]; 25°C, pH 8.5, 24 hr) was ~ 20%. For the same molecule, the spontaneous degradation ([1]; 37°C and pH 9, 30 min) was ~ 1%, the “AMP which forms spontaneously” value ([1]; 20 min, pH 8.5, 10 mM ADPR) was ~ 30 μM and the stability ([1]; neutral or slightly acidic pH) was “inherently stable”. For the same molecule, the “n (Hill slope for ADPR binding)” value (T5L-TRPM2 [2]; Figure 8B) was 1.3±0.1, the EC50 (T5L-TRPM2 [2]; inside-out patches from Xenopus laevis oocytes, saturating Ca2+, −20 mV, Hill fit (Figure 7H), read-out: K1/2 for ADPR-induced current activation) was 1300 ± 100 nM and the “Fractional activation by 1 μM ADPR” value (T5L-TRPM2-Chi2) was “reduced”. For the same molecule, the EC50 (T5L-TRPM2 [3]) was 1000 nM.

With “NUDT9H: isolated C-terminal cytosolic NUDT9-homology domain of TRPM2, recombinant, hexahistidine tag” the Pi release [4] was “did not result in any significant Pi release”, the “ADPRase activity (conversion of ADPR into AMP and R5P, TLC)” value [5] was “failed to hydrolyze the nucleotide” and the Enzyme [5] was “No”. The “stability of purified soluble preparation” value ([6]; 4°C) was “precipitated overnight at 4 °C”, the Soluble [6] was “No^¶” and the reported turnover rate ([7]; isolated NUDT9H) was ~ 0.1 s^-1. For the same molecule, the kcat ([7]; pH 9 and 37°C) was ~ 0.06 s^-1 and the “reported enzymatic activity, lower than that of NUDT9” value [7] was “about 100 fold”.

B1: NUDT9: soluble, Mg2+-dependent mitochondrial ADPR pyrophosphatase, recombinant, C-terminal hexahistidine tag (protein)
chain: ENSHNKARTSPYPGSKVERSQVPNEKVGWLVEWQDYKPVEYTAVSVLAGPRWADPQISESNFSPKFNEKDGHVERKSKNGLYEIENGRPRNPAGRTGLVGRGLLGRWGPNHAADPIITRWKRDSSGNKIMHPVSGKHILQFVAIKRKDCGEWAIPGGMVDPGEKISATLKREFGEEALNSLQKTSAEKREIEEKLHKLFSQDHLVIYKGYVDDPRNTDNAWMETEAVNYHDETGEIMDNLMLEAGDDAGKVKWVDINDKLKLYASHSQFIKLVAEKRDAHWSEDSEADCHAL
modifications: left off: His6, C-terminal, kept
notes: soluble, Mg2+-dependent mitochondrial ADPR pyrophosphatase, recombinant, C-terminal hexahistidine tag
With B1 the “ADPRase activity (conversion of ADPR into AMP and R5P, TLC)” value [5] was “active ADPRases”, the “decrease of kcat from pH 8.5 to 6.5” value ([5]; TLC kinetics) was ~ 1.4 fold and the Enzyme [5] was “Yes”. For the same molecule, the kcat ([5]; pH 6.5 (RB1)) was 6.4 s⁻¹, the kcat ([5]; pH 7.1 (RB2)) was 7.6 s⁻¹ and the kcat ([5]; pH 8.5 (RB3)) was 9 s⁻¹ and 9.0 s⁻¹. For the same molecule, the Soluble [6] was “Yes” and the kcat ([7]; previously reported values) was ~ 8 s^-1.
